In patent US10870874B2, “Binding fusion proteins, binding fusion protein-drug conjugates, XTEN-drug conjugates and methods of making and using same” (Amunix Pharmaceuticals, Inc., priority 2010, dated 2020):
Values belong to the molecule of their own block, whether it stands above or below them.

Columns and labels:
[1] = biological target: human CD40 (Homo sapiens, UniProt P25942); test: CD40 binding ELISA with cleared lysates of aCD40-XTEN; conditions: from EC50 of lysate dilution and an estimate concentration of 10 μM in the lysate
Procedure: Two aCD40-XTEN constructs, AC384 and AC385, were expressed by growing a culture to saturation in 2×YT and then using this culture to inoculate a 500 ml flask of 2×YT. This second flask was grown to an OD600 of between 0.6 and 1.0 at 37° C., transferred to 26° C., and induced with 1 mM IPTG. The induction was left overnight and cell paste harvested by centrifugation the flowing morning. These pellets were stored as EP220 and EP221. Small samples were taken from the pellet, lysed using bugbuster, and clarified using a microcentrifuge. These cleared lysates were the serially diluted by a factor of three in PBST, for using in a binding ELISA. The ELISA was performed as follows: The plates were coated with either 100 ng/well of human CD40-Fc fusion for 1 hour at 37° C., blocked with 3% BSA in PBS for one hour at 37° C., bound by adding the AC384 or AC385 dilution series to the plate and incubating for one hour at room temperature, washed 3 times with PBST, detected with biotinylated anti-XTEN antibody for one hour at room temperature, washed three times with PBST, amplified with streptavidin-HRP for one hour at room temperature, washed three times with PBST, developed with TMB substrate and read at 405 nm using a plate reader. The ELISA values were plotted versus dilution of lysate plotted on a log scale and an EC50 value determined, with nearly identical results (FIG. 27).

[2] = Stability of XTEN_AE864-GFP incubated in monkey plasma; format: in vitro ADME, cynomolgus monkey; conditions: 37° C., 7 days
Procedure: (§1) FIG. 16A-FIG. 16C show an SDS-PAGE gel of samples from a stability study of the fusion protein of XTEN_AE864 fused to the N-terminus of GFP.
(§2) A fusion protein containing XTEN_AE864 fused to the N-terminus of GFP was incubated in monkey plasma and rat kidney lysate for up to 7 days at 37° C. Samples were withdrawn at time 0, Day 1 and Day 7 and analyzed by SDS PAGE followed by detection using Western analysis and detection with antibodies against GFP as shown in FIG. 16A-FIG. 16C. […] The in vivo stability of the fusion protein was tested in plasma samples wherein the GFP_AE864 was immunoprecipitated and analyzed by SDS PAGE as described above.

[3] = Stability of XTEN_AE864-GFP incubated in rat kidney lysate; format: in vitro ADME; conditions: 37° C., over 3 days
Procedure: as §1
as §2, with “Samples” for “A fusion protein containing XTEN_AE864 fused to the N-terminus of GFP was incubated in monkey plasma and rat kidney lysate for up to 7 days at 37° C. Samples”

[4] = In vivo stability of GFP-XTEN in plasma samples after injection; parameters: species or system cynomolgus monkeys; conditions: samples up to 7 days after injection
Procedure: as §1, §2

[5] = biological target: T1, human IL6R (Homo sapiens, UniProt P08887); test: IL6R binding ELISA of aIL6R-XTEN; conditions: 100 ng/well human IL6R
T1 sequence (P08887 20-468): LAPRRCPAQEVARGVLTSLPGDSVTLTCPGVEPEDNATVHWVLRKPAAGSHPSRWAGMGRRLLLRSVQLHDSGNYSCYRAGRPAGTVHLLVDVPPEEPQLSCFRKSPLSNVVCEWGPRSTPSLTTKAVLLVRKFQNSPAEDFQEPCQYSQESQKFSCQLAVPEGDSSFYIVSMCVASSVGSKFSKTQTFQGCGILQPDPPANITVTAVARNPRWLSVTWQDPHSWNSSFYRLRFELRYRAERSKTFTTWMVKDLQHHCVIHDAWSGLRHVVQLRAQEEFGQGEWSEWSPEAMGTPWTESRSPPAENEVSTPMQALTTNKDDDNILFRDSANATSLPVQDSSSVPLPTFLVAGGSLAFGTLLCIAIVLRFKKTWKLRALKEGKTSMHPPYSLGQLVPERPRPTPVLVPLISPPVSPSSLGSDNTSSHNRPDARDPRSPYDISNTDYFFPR
Procedure: E. coli from a single colony of AC342 was grown to saturation in 2×YT media. 10 mL of this saturated overnight culture was used to inoculate a 500 ml of 2×YT media and this culture was grown to an OD600 between 0.4 and 0.5 at 37° C., transferred to 26° C. and induced with 1 mM IPTG. The culture was then grown overnight (15-17 hours) and harvested by centrifugation at 10,000 rpm in a Sorvall SLA-3000 rotor. The pellets were stored until use at −80° C. Cell paste was resuspended in 25 ml of lysis buffer (20 mM sodium acetate, 50 mM sodium chloride, pH 4.5), lysed by sonication, and clarified by spinning at 10,000 rpm at 4° C. in a Sorvall SS34 rotor. The samples were further acidified by the addition of acetic acid. […] IL6R binding was assessed in an ELISA as follows: the plates were coated with either 100 ng/well of human IL6R for 1 hour at 37° C., blocked with 3% BSA in PBS for one hour at 37° C., bound by adding the AC342 dilution series to the plate and incubating for one hour at room temperature, washed 3 times with PBST, detected with biotinylated anti-XTEN antibody for one hour at room temperature, washed three times with PBST, amplified with streptavidin-HRP for one hour at room temperature, washed three times with PBST, developed with TMB substrate and read at 405 nm using a plate reader.

human CD40, sequence (P25942 21-193 limits assumed): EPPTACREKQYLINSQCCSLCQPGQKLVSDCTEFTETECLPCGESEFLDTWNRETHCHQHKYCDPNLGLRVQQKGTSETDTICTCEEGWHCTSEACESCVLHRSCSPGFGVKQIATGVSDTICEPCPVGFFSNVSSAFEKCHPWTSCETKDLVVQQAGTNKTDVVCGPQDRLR

B3: XTEN_AE864: fusion protein containing XTEN_AE864 fused to the N-terminus of GFP (protein)
chain: MAEPAGSPTSTEEGTPGSGTASSSPGSSTPSGATGSPGASPGTSSTGSPGGASASCAPSTGGGSPAGSPTSTEEGTSESATPESGPGTSTEPSEGSAPGSPAGSPTSTEEGTSTEPSEGSAPGTSTEPSEGSAPGTSESATPESGPGSEPATSGSETPGSEPATSGSETPGSPAGSPTSTEEGTSESATPESGPGTSTEPSEGSAPGTSTEPSEGSAPGSPAGSPTSTEEGTSTEPSEGSAPGTSTEPSEGSAPGTSESATPESGPGTSTEPSEGSAPGTSESATPESGPGSEPATSGSETPGTSTEPSEGSAPGTSTEPSEGSAPGTSESATPESGPGTSESATPESGPGSPAGSPTSTEEGTSESATPESGPGSEPATSGSETPGTSESATPESGPGTSTEPSEGSAPGTSTEPSEGSAPGTSTEPSEGSAPGTSTEPSEGSAPGTSTEPSEGSAPGTSTEPSEGSAPGSPAGSPTSTEEGTSTEPSEGSAPGTSESATPESGPGSEPATSGSETPGTSESATPESGPGSEPATSGSETPGTSESATPESGPGTSTEPSEGSAPGTSESATPESGPGSPAGSPTSTEEGSPAGSPTSTEEGSPAGSPTSTEEGTSESATPESGPGTSTEPSEGSAPGGASASCAPSTGGGSEPATSGSETPGTSESATPESGPGSEPATSGSETPGSPAGSPTSTEEGTSTEPSEGSAPGSEPATSGSETPGSEPATSGSETPGSEPATSGSETPGTSTEPSEGSAPGTSESATPESGPGSEPATSGSETPGTSTEPSEGSAPG
degradation in plasma [2]: negligible signs of degradation | degradation in rat kidney lysate [3]: rapidly degraded | degradation in vivo [4]: very few signs of degradation

B4: AC342: aIL6R-XTEN binding fusion protein construct (protein)
chain: YQQKPGKAPKLLIYYTSRLHSGVPSRFSGSGSGTDFTFTISSLQPEDIATYYCQQGNTLPYTFGQGTKVEIKTGSGEGSEGEGGGEGSEGEGSGEGGEGEGSGSQVQLQESGPGLVRPSQTLSLTCTVSGYSITSDHAWSWVRQPPGRGLEWIGYISYSGITTYNPSLKSRVTMLRDTSKNQFSLRLSSVTAADTAVYYCARSLARTTAMDYWGQGSLVTVSSGSPGSPAGSPTSTEEGTSESATPESGPGTSTEPSEGSAPGSPAGSPTSTEEGTSTEPSEGSAPGTSTEPSEGSAPGTSESATPESGPGSEPATSGSETPGSEPATSGSETPGSPAGSPT
EC50 [5]: 5 nM

Now from value to molecule:

Kd [1]: ~50 nM
B1: AC384: anti-CD40-XTEN_AE864 scFv binding fusion protein (protein)
chain: QQKPGQAPRLLIYYASHSISGIPARFSGSGSGTDFTLTISSLEPEDFAVYYCQHGHSYPWTFGGGTKVEIKTGSGEGSEGEGGGEGSEGEGSGEGGEGEGSGTQVQLVQSGSELKKPGASVKVSCKASGYAFTTTGMQWVRQAPGQGLEWMGWINTHSGVPKYVEDFKGRFVFSLDTSVSTAYLQISSLKAEDTAVYYCARSGNGNYDLAYFKYWGQGTLVTVSSGGSPAGSPTSTEEGTSESATPESGPGTSTEPSEGSAPGSPAGSPTSTEEGTSTEPSEGSAPGTSTEPSEGSAPGTSESATPESGPGSEPATSGSETPGSEPATSGSETPGSPAGSP

Kd [1]: ~50 nM
B2: AC385: anti-CD40-XTEN_AE864 scFv binding fusion protein (protein)
chain: QQKPGQAPRLLIYYASHSISGIPARFSGSGSGTDFTLTISSLEPEDFAVYYCQHGHSYPWTFGGGTKVEIKTGSGEGSEGEGGGEGSEGEGSGEGGEGEGSGTQVQLVQSGSELKKPGASVKVSCKASGYAFTTTGMQWVRQAPGQGLEWMGWINTHSGVPKYVEDFKGRFVFSLDTSVSTAYLQISSLKAEDTAVYYCARSGNGNYDLAYFKYWGQGTLVTVSSGGSPAGSPTSTEEGTSESATPESGPGTSTEPSEGSAPGSPAGSPTSTEEGTSTEPSEGSAPGTSTEPSEGSAPGTSESATPESGPGSEPATSGSETPGSEPATSGSETPGSPAGSPT
